Assay results: the domain aggregation screens of Martell et al. (2025)

Assay: soluble fraction after stress (log2 fold change); higher = more stays soluble; pooled small domains, quantitative proteomics
Conditions: stress: 75 degC
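Further: 20 min heating vs room temperature control held 20 min.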

| Sequence | soluble fraction (log2) |
| --- | --- |
| HMAVKYTKDDFLYTEKPYEAIYDYKNDPFMHNLKIEQMAQQAAEVGVKTFKGLYKNYVKMREMQRGANV | 0.0263 |
| HMAVNSALVQRNWLIGYRIAEEELQGDNRAEYGASIIKKLAKELTAEYGKGYTKTNLYHFYSFYKT | -0.0399 |
| HMAVNVNGIHLSSQQHEALVSIWRTGRMPEPHAGQKPWLWIQALRRRGLVSGNALRLTDKGRHIVQLLQ | -0.288 |
| HMAVPAALVQAWLELSRRMVAGTQDVGERFAEEARKMHYGETEDRGIRGQATLTEVRDLLDEGIEVLPLLL | -0.439 |
| HMAVPLVRGTVTSSVGTVLLLSVGERDFFLSEGEEKDGVLLQSLSEKSAVVVVSGRAYTLSL | -4.42 |
| HMAVRLADMAAEKIRKMIIENKFDAGEPLSEMRLAEMFNVSRTPIREAIAILEQEGLLTTVHGKGAFIS | -0.896 |
| HMAVSDAAEEYGKAGTPLVILAGKEYGSGSSRDWAAKGPYLQGVRAVLAESYERIHRSNLVGMGIVPLTYK | 0.18 |
| HMAVSDPTAGGIKALMYPNPAQDRLSVALDIPAGLDKQAQMTVTDMMGRVVTQQQVTLNDGFQVFEL | 0.268 |
| HMAVSSYSVKRYIRNMIQAEDPSAPFSDEALRLALLAHGIAVSRRVVTKYRMAMDIPSSSQRRKR | -1.41 |
| HMAVSTFGRITASSLNVRSGPSTDHEKVGSLAAGRVVELLEESDGWYRIENGYISTEYVTIVDPSQ | -0.715 |
| HMAVTEVKTTAVVNMRSSDSEKADKLGKAQIGDTFRVLEQRANGWTKLTDGTQEFFIKSEYLEAIA | 0.109 |
| HMAVVAPLAGSVARVLVADGDEIEAGQVLLVLEAMKMETEITAPKAGKVGAILVGKGDSVQGGQGLR | -0.18 |
| HMAYLTGFHAIEELIRAGKAKGPLLVANAGPRARTIMSLATDNKIRIDRLGEHELNRLAPGNRGIALYVE | -0.898 |
| HMDAAYVYVIGTRVNQRAGPSTSNAVMGVLSEGTRVETLRDEGQWTQIRSNFGTGWMSSSFLSSVAP | -1.28 |
| HMDADRILHKTLKPRELEIYQLIKAYLEEHSQIANAKVQEISGLSEATTRRYLNIFVEFGLLKTS | -0.214 |
| HMDADTVGQIRVVKQILDDGRLIVVDASGNPVLVRRSSALSLTAISQGDRIIVDPSVRLAIELLPNE | -0.637 |
| HMDAEELNSKAKDEFTWLEDDESETNLEYRKMVSSEDMAIVAKVAPALAAKLKYQLAHAATNMV | 0.149 |
| HMDAEVEHLFRIIAELKEKNVAIIYISHKMDEIFRISDDITVYRDGEYIATDRAENLNVDKVIQLMVGREV | -0.429 |
| HMDAEWRTLTLAPEQHQQRLDRALADSLPEFSRSYVQQLIDTGMVRVNGVLAAKSAQRVKALDQVQVELR | -0.411 |
| HMDAGIVVPDTYNKPLAEAVASLEGEGFRTEKKEGYSDTVAKGNVMSQNPEAGTNAERGSTVTIVISQGPQ | 0.455 |
| HMDAINYEDFQLLIKQRGSFKVAFEDIMFSTKVAIEKKEDFYDFVTKLIDNGFNNMAYNYLEGFQD | -2.07 |
| HMDAISYTQFMEEAKQGRINKVEVQGRTLMVTPTDGKAYSLTSPGDLWMTTDLMKYGVNVYGAE | 0.0525 |
| HMDALKAVYQWVTRTMMKNQTGVMQTLPNRDLIELNTQITAQRLMQAGVDPTTLKNANQVENAVNIIESR | -0.69 |
| HMDAMGAVGIARAFISAGERGGDISDGLEHMHGKLLRLSSLMYTRSGKKMAARRHELLSSFVQALEEEIK | -0.327 |
| HMDAMQAFPNPTVDEIHFVTPTTGRVYNAHGQLVMVLKNAQLVNVRQWSAGQYVIVREDGYAVRWIK | -1.3 |
| HMDAPQRVTYLLPHSRGEVVSWLHRQGEVVAQEYEAEGVRVVVDLRYAQIRQAAKQFDVLPAEG | -1.24 |

| Sequence | soluble fraction (log2) |
| --- | --- |
| HMDAPRFAAGDAVRVAGLVSKPQHNGRAGSVLSYDPVSLRYIVKVDGEDEPLKLKPENVLMPA | 0.11 |
| HMDAQLRVPDLTPYNYSELKENTSLYEGFTIEVVEERSTGDYAAGTVLDQDPKADTLIQDGDSTVIKLVIA | 0.151 |
| HMDASFTYSLETHPAGVLVRVDGLEYETPFSILLPQGVHRLEVAGEERFFYLSETTHQFLEID | -2.9 |
| HMDATGDPIADRILQALQLGELTRTQVNNVFQRHLAAARISQALNFLRSLKRADMRMEETAGRSGEVWFAI | -0.454 |
| HMDAVKKKVQSTNTLLDVLKQMLPQTSSNTLRKMLTNQRITVDGETIHRAKHTVEKDQTVEIHPKP | 0.215 |
| HMDAVSYTQFMQDAKAGRIKKVIVHQSGILDVTTTEGRRFNLTSPGDLWMVGDLVKDGVDVVGAP | -0.234 |
| HMDAVTYAKGSSGETVREIQQLLLDWGYYSGEVDGIFGSRTEDAVEYFQRKNGLTVDGKVGPATLEALGIS | -0.0808 |
| HMDAYMIGHNIAKWRKEKGMTQDQLAEHLSVSGQAVSKWENGASLPDIAILPKLAEIFDVTMDQLFSR | 0.0534 |
| HMDDAIAEKTGGAVSSVNQRQAILDHIREAYGIELESLRSTDIERYLDDPEIPEPVKDILRDRLRGAK | 0.204 |
| HMDDDAELLLKKLSAAGGELPFHDRSEPAEIEAAFGLSKSAFKRALGKLLKAGKVVKTQQGIQLK | 0.162 |
| HMDDDIKNALDVLPEQYRMTVYYADVEGLAYKEIGAIMNTPIGTVMSRIHRGRSQLRVLLAAVAADR | 0.316 |
| HMDDFITLVIHTPAHAQNLRNILESHGMEVRLEDFVSFKSPVAVAQRVKIRPKDLPLALKIIESGE | 0.19 |
| HMDDFVEIDGKKYEIDMSFDNILRLFDLLKDKSLNDVTKIETGLIMLIDDSLDDYDTEEKADIFVQIF | -0.411 |
| HMDDGALQIRLGPQALQQRLDKLGYSLNKEDLDLVYQYFLHSADSKGAVYDQELRELMGEAGVE | -0.102 |
| HMDDIHTFVYETETPFDPQKLDRYIGSLTAVYGQDMLRYKGILYFAGVDRRVVFQGVHMLAV | -0.0939 |
| HMDDILAYEIEDKEDLENLSLGKSIGINLNKLIKPTLNSFDNSLLFLSKKGNIISYGKLNGDLFKPKKVL | 0.346 |
| HMDDINVSNSKNIVPNVTGHTGSKAIPVLENLGLDVQYSGFGKVTNQSIPAGTRFKKGETIYLMLE | 0.03 |
| HMDDIVFPNPTKNQINVSIDGLKNIYNLSGKLLISTNDKIIDVSILKAGVYFINTNEQFYKFVK | -1.41 |
| HMDDIVPHSTKNHIIKTFLSLMNSLDIITDKNKKSLNQNVHIIFNKFNFSKKEANLFIGVLNRIQKALK | 0.602 |
| HMDDLFGNAIEMFNNQRYDMTYELLVQLLSETPNNEKAWQLLADTKFMLGDYDDALHIVGKAAK | -1.05 |
| HMDDPWHNLANAIVAVAADDYRSALRNEDEGLLKSLELFFHSEWYRILTDVDADRLLGMLRRERS | -1.71 |
| HMDDTPLNNVIKKIAALPENITLADKSAVLSAWEAYQALSVNLKAQVSNSELLIKAYETILQLEGEDQIK | 0.437 |
| HMDDYRIEDMMTVVEEQVIRQKETNLSWFFKRAGSLNEIITIFLAALELIKVHRVYVKQEHNFDDIILRKE | 0.305 |
| HMDEAAGVLTQLRAFIAASNLSPGLRLPPERELAEQLGVTRAELRKALAVLEAEGLLWRQVGKGTFYGARP | -1.35 |
| HMDEAEELYQAVQALKPKYREVILLHYYQGLRVGEIAAILRAPQSTVSIRLRRARQMLNRMLG | -0.701 |
| HMDEALLRATLLDVLVKHHPKIGDKLDVVFALAKAWVSSGSDDDFEVLEKYMERLKPDEALMLASGFSNML | -0.886 |

| Sequence | soluble fraction (log2) |
| --- | --- |
| HMDEDTWKLYKRAYKKYYARYMKGNMSEAAFKAWGEQAAADRDAAIEQLRATTDAALSASIIQQLKEKLNR | -0.995 |
| HMDEEDVLNELIRRLALTADDRLLLSLSYEDGLSSRKIATLLETSAATVQRRLAGLHHQLEQALRVMGLA | -0.323 |
| HMDEEGDALDREYEDQIRLGDEAFDAEDWTSAQRAYTAALELRPDERYPKNRLRRLASLQEDV | 0.245 |
| HMDEETVALQKAIHSLPPKQQAVFNMRYYDEMSFREIADANETTESSAKANYHFAKAKIIEQMKR | 0.113 |
| HMDEILHHPSYRAIYEYMLDHKHVKTKDIAALLNVKEPRARQLLKEMIDKHFIIALGSNRNREYELL | -0.94 |
| HMDEKSGWLHLAPHEGALRAALYAEHAVQEERTAPDGSQWLRLVLREKHYHQIQSKYNRRLTLHTQPDPS | -2.58 |
| HMDENDPYEILEIDRLASDDQVKAKYRALIRENHPDVLMAKGVPQEFIDLANRKMAVINAAYDRIEKEREF | 0.122 |
| HMDEPGAGYKWREDVLLRVMASHGIEESLRDDFVRHAVGFDNDDNMYLKKVEIENAAAAWVAN | -0.359 |
| HMDETELLLQKAIATLPDKQRVVFNLKYFDEMKYEEMSELLETSVGALKASYHLAVKKIEQFFHDA | -0.555 |
| HMDETYRRQLEDLAREHGAEYLHGILREVDPASAEAIHANNIKRVIRALEFYHLSGKKISEHNETERQ | -0.12 |
| HMDEVHYLADKERGTTWEEILIHADRDIKFLSLSATINNKNEFLEWLVSLRGTTSLIHSSTRPIPLEI | 0.231 |
| HMDEVLDQFVRGQIYGYIRANPGDIYSSIRDNLGLKNGVTTYHLDVLAREEYVYSEIDGTNRRFYPSGWEE | -2.77 |
| HMDEVVVVERGGVQITMSEIDAKIMELPVDVRPSYLDSPERLQNFVSNLLLEKQAAQLKSQY | -0.142 |
| HMDEWDPAILYVGLDYEDAAQIATRLATSGVPYRLSPDGTMITVPDDQVNNMRLTLAGEGFPH | -0.0325 |
| HMDEYFNPETVVHYLRELFDTYRENGGNPFEWFHSTFESVNLNPQNYRKDLITTIEKALIEWIEIFEKQ | -0.697 |
| HMDFDPDVPSREDILQAFRDSKPPLTVNALISEFGLSRDASIVGLERRMGAMQRDGQLEQTPSGWQLSV | -0.164 |
| HMDFFVLVGAYKTPDEAETIRAKIAFSGLDSSVSHGNDGRYRVRIGPFHSEGDARKAQSTLRANDIPGQII | -1.01 |
| HMDFGMPEELQKKLDKMPALKAAFEALTPGRQRGYIFYFSQPKQSKTRELRIEKSIEQIMNGKGLND | -0.414 |
| HMDFIEYIISEESKGLRADQAISMENDKFSRSLIQKWIKKGRVLVNGRKIKPKDIVNLNDKITINPEESIN | -0.36 |
| HMDFITPYEIEQGQYEGAELYEDGKFEEAFSLSSIAAQRGMKTAQYLLGIMFLKGEYVDQSLAIGMAW | -0.52 |
| HMDFPYISGIEIAAIKNREFIRIETDKAQEIAIALDKSGIPFSARFSDAEMVLTYDGSYKEQVEDIIAKA | -0.705 |
| HMDFSERLARAMSLAGYTQGRLAKEVGMAQSSVNKLLNGANGSRKTVEIASVLGVRPEWLSTGAGEML | -0.546 |
| HMDFSSRLKDERKRLKLSQAQLGEAGGVSKDAQLNYENGSRSPSASYLELIAREGVDVQFLLTGKRS | 0.155 |
| HMDFSYTVGDIDEPIDSRGNSVIMLRKLAWGSNAEKLEIRRWIIDIDSERANKGVTFLTEEGPHNLVRV | 0.272 |
| HMDFTISDADFHRLVQFIQQNYGVALSKKRQLISSRLSHSLRELGYKDFRTFLEHLFSTRDPADLELVLNK | -1.59 |
